Experimental data as given in paper PMC5412564 (The Journal of Cell Biology, 2017).

Key:
[1] = target: 549-SNAP-VopF (Vibrio cholera (so in the source)); assay: photobleaching step counting of single molecules
[2] = target: the molecule itself; assay: photobleaching step counting of single molecules

Q: With 549-SNAP-VopF (domain or fragment) as the molecule, how does the stoichiometry N [1] read?
A: 2

B1: 549-SNAP-VopL (domain or fragment)
chain: LSIKHGSSIPPAPPLPGAIPPAPPLNLSKGAPKSSSNSLDSVNEDHSKLMEQIRQGVKLKSATKSLSADKSSADAHSKLMEELLTGGRKLKKVATSDIPAPPPLPSASTSKSPDSRNALLSEIAGFSKDRLRKTGSLETLNSSQSKDKESFEPTTHERLLSEDLFKQSPKLSEQELDELANNLADYLFQAADIDWHQVISEKTRGLTTEEMAKSEHRYVQAFCREILKYPDCYKSADVASPESPKSGGGSVIDVALKRLQTGRERLFTTTDEKGNRELKKGDAILESAINAARMAISTEEKNTILSNNVKSATFEVFCELPCMDGFAEQNGKTAFYALRAGFYSAFKNTDTAKQDITKFMKDNLQAGFSGYSYQGLTNRVAQLEAQLAALSAKLS
modifications: SNAP-Surface 549 on the SNAP-tag (labeling efficiency ~75%)
Q: B1 was tested. Which “stoichiometry N” value [2] did it give?
A: 2
